Measured values as given in US20170137467A1 (CHROMOTEK, published 2017).
Square brackets hold non-standard residues; d marks the D form. Ends that are not written are not given here. * marks the point of attachment. Biotin = O=C1N[C@H]2[C@H](CS[C@H]2CCCCC(=O)*)N1; ethylene glycol linker = not defined here; GABA = NCCCC(=O)O

T1: recombinant human β-catenin, full-length (human, UniProt P35222 1-781, limits assumed)
T1 construct: Purified from E. coli; also called full-length β-catenin
T1 sequence (looked up): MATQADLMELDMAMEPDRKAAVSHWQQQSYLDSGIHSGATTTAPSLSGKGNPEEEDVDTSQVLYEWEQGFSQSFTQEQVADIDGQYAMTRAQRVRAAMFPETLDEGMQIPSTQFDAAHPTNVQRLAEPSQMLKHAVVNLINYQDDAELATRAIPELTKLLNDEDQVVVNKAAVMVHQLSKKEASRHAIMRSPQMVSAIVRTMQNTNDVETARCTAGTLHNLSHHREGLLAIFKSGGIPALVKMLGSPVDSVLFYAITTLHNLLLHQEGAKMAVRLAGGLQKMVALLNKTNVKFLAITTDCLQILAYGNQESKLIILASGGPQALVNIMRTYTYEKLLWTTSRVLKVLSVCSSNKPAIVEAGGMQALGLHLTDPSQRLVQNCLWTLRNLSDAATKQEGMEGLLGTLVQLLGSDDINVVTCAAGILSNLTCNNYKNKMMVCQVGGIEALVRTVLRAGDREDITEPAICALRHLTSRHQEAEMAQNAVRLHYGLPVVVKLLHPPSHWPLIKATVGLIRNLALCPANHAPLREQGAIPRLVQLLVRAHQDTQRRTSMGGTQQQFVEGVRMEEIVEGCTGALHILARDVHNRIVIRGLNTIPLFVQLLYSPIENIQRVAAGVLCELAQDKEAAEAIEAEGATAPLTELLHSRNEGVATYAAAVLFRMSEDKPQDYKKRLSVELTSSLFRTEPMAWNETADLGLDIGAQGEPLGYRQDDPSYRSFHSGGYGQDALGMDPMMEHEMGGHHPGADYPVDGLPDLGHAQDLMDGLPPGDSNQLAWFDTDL

T2: pTag1 peptide (PDRVRAVSHWSS), biotinylated (reading uncertain)
T2 construct: Immobilised on Streptavidin biosensors
T2 peptide: {Biotin-ethylene glycol linker}-PDRVRAVSHWSS

T3: BC2T H9C* library peptide (human, SMILES …)
T3 construct: also called C(Abu)
T3 peptide: Ac-PDRKAAVS[GABA]WQQ-NH2

T4: BC2T W10R library peptide (human)
T4 construct: also called BC2TW10X: R
T4 peptide: Ac-PDRKAAVSHRQQ-NH2

T5: BC2T H9F library peptide (human)
T5 peptide: Ac-PDRKAAVSFWQQ-NH2

T6: BC2T H9N library peptide (human)
T6 peptide: Ac-PDRKAAVSNWQQ-NH2

T7: BC2T W10V library peptide (human)
T7 construct: also called BC2TW10X: V
T7 peptide: Ac-PDRKAAVSHVQQ-NH2

T8: BC2T S8N library peptide (human)
T8 construct: also called BC2TS8X: N
T8 peptide: Ac-PDRKAAVNHWQQ-NH2

T9: BC2T Q12H library peptide (human)
T9 peptide: Ac-PDRKAAVSHWQH-NH2

T10: BC2T Q11S library peptide (human)
T10 peptide: Ac-PDRKAAVSHWSQ-NH2

T11: BC2T W10P library peptide (human)
T11 construct: also called BC2TW10X: P
T11 peptide: Ac-PDRKAAVSHPQQ-NH2

T12: BC2T Q12S library peptide (human)
T12 peptide: Ac-PDRKAAVSHWQS-NH2


Columns and labels:
[1] = target: T1, recombinant human β-catenin, full-length; assay: not stated at this place (description)
Description: The dissociation was induced by two injections of regeneration solution of 15 μl each at the identical flow rates.

[2] = target: T2, pTag1 peptide (PDRVRAVSHWSS), …; assay: biolayer interferometry, biotinylated peptide on Streptavidin biosensor; reference original BC2T (SEQ ID NO:4)
Description: Biolayer interferometry (BLI)-based affinity measurements were used to assess two improved variations of the original BC2T sequence (a: […], pTag1 SEQ ID NO:33; b: […], pTag2 SEQ ID NO:34) in comparison with the original BC2T sequence (c: BC2T SEQ ID NO:4).
The shaking rate was 1200 rpm. As a reference, each peptide was also incubated with BLItz buffer only according to the protocol above. […] The sensor was regenerated by sequential dips into 10 mM glycine pH 2.0 and BLItz buffer (repeated three times). Raw data were analysed using the software BLItz Pro (fortéBio) and a 1:1 binding model.

[3] = target: T3, BC2T H9C* library peptide; assay: peptide library pulldown on immobilized Nb, LC-MS of supernatant; ratio vs GFP-Nb control (1 = not captured, 0 = captured)
Source text: (§1) In total, 12 different BC2T libraries displaying all 20 proteinogenic amino acids in one single position of the peptide were used in immunoprecipitation experiments. […] The direct comparison with the GFP-Nb made it possible to determine the quantitative degree of peptide capture without the need of labeled standards. […] The more peptide was captured the more the value approximates 0. It was not possible to discriminate between isoleucine (I) and leucine (L) peptide versions since these peptides are isobaric.
(§2) To investigate the binding specificity of the BC2T and derived mutants peptide libraries for each amino acid position of the sequence […] (SEQ ID NO:4) were synthesized with acetyl and amide groups located at the N-termini or C-termini respectively (Intavis). […] Incubations were performed in 300 μl PBS/0.01% CHAPS for 1 h on a HulaMixer (Life Technologies). Subsequent to a centrifugation step 10 μl supernatant were analyzed in a LC-MS procedure. Peptides were separated using an UltiMate3000 RSLCnano System (Thermo Scientific), composed of a C18 PepMap100μ-Precolumn (300 μm×5 mm; particle size: 5 μm; pore size: 100 Å—Thermo Scientific) and a C18 analytical column (Acclaim Rapid Separation LC (RSLC) Column: 150 mm×5 mm; particle size: 2.2 μm; pore size: 100 Å—Thermo Scientific). A step gradient was applied starting at 8% and ending after 20 min at 30% eluent B (80% acetonitrile, 20% H₂O, 0.1% formic acid).

[4] = target: T4, BC2T W10R library peptide; assay: as above
Source text: as §1, §2

[5] = target: T5, BC2T H9F library peptide; assay: as above
Source text: as §1, §2

[6] = target: T6, BC2T H9N library peptide; assay: as above
Source text: as §1, §2

[7] = target: T7, BC2T W10V library peptide; assay: as above
Source text: as §1, §2

[8] = target: T8, BC2T S8N library peptide; assay: as above
Source text: as §1, §2

[9] = target: T9, BC2T Q12H library peptide; assay: as above
Source text: as §1, §2

[10] = target: T10, BC2T Q11S library peptide; assay: as above
Source text: as §1, §2

[11] = target: T11, BC2T W10P library peptide; assay: as above
Source text: as §1, §2

[12] = target: T12, BC2T Q12S library peptide; assay: as above
Source text: as §1, §2

| Binder | Kd [1] | fold slower koff than for original BC2T [2] | ratio [3] | ratio [4] | ratio [5] | ratio [6] | ratio [7] | ratio [8] | ratio [9] | ratio [10] | ratio [11] | ratio [12] |
| --- | --- | --- | --- | --- | --- | --- | --- | --- | --- | --- | --- | --- |
| BC2 nanobody (VHH, Alpaca VHH, 122 aa; also called BC2-Nb; BC2 nanotrap (BC2-Nb immobilized on agarose/Sepharose beads); not shown: C-terminal 6xHis-tag added by the pHEN6 vector) VHH: QVQLVESGGGLVQPGGSLTLSCTASGFTLDHYDIGWFRQAPGKEREGVSCINNSDDDTYYADSVKGRFTIFMDNAKDTVYLQMNSLKPEDTAIYYCAEARGCKRGRYEYDFWGQGTQVTVSS | 3.7 nM | 7 fold |  |  |  |  |  |  |  |  |  |  |
| BC2-Nb(R106E) (VHH, Headlock mutant; immobilized on beads in the library pulldown) VHH: QVQLVESGGGLVQPGGSLTLSCTASGFTLDHYDIGWFRQAPGKEREGVSCINNSDDDTYYADSVKGRFTIFMDNAKDTVYLQMNSLKPEDTAIYYCAEARGCKRGEYEYDFWGQGTQVTVSS |  |  | 0.3 | 1.3 | 0.2 | 0.2 | 1 | 0.5 | 0.1 | 0.2 | 1.1 | 0.1 |
